From US20250270274A1 (SERPENTIDE, published 2025)
Read-outs that look alike come from different tables or passages of the source. Where no end group is shown, it is not given here.

Assays:
Test in all cases: cell-based or functional assay
[1] = molecular target: T1, mouse GIP receptor (mouse, UniProt Q0P543 19-460)
T1 sequence (looked up): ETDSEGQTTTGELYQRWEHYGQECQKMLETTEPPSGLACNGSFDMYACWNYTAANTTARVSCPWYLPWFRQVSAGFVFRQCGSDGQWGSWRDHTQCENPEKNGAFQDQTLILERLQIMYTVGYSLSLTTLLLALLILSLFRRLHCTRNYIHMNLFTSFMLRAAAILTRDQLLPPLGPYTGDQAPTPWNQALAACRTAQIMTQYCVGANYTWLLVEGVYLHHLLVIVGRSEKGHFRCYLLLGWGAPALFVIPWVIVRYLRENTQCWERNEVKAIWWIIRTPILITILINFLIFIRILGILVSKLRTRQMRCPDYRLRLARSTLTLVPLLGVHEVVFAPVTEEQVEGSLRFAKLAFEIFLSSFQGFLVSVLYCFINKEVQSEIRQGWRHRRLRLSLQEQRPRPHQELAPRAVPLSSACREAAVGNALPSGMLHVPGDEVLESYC

[2] = molecular target: T2, human GIP receptor (human, UniProt P48546 22-466)
T2 sequence (looked up): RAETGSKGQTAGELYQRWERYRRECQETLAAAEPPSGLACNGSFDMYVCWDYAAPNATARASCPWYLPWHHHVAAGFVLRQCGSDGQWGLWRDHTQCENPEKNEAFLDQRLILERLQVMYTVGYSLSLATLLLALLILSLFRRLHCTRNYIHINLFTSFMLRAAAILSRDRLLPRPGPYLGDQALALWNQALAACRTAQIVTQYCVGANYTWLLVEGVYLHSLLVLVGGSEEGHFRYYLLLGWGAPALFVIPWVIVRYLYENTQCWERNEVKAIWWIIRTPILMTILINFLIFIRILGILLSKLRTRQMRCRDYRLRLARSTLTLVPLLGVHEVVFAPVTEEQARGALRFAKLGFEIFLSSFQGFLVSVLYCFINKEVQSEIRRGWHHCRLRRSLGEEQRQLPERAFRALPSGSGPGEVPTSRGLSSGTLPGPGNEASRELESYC

[3] = molecular target: T3, human GLP1 receptor (human, UniProt P43220 24-463)
[4] = molecular target: T2, human GIP receptor; remark: listed apart in the source
[5] = molecular target: T3, human GLP1 receptor; remark: listed apart in the source

B1: P26: SP02-bispecific antibodies for GLP1R and GIPR (bispecific antibody, human IgG1, kappa)
chain 1: YGEGTFTSDYSIYLDKIAQKAFVQWLIAGGPSSGAPPPSGGGGSGGGGSGGGGSDIVMTQSPSSLTVTAGEKVTMSCKSSQSLLNSGNQKNYLTWYQQKPGQPPKLLISWASTRDSGVPDRFTGSGSGTDFTLTISSVQAEDLAVYYCQNDYSYPLTFGAGTKLELKRTVAAPSVFIFPPSDEQLKSGTASVVCLLNNFYPREAKVQWKVDNALQSGNSQESVTEQDSKDSTYSLSSTLTLSKADYEKHKVYACEVTHQGLSSPVTKSFNRGEC
chain 2: YGEGTFTSDYSIYLDKIAQKAFVQWLIAGGPSSGAPPPSGGGGSGGGGSGGGGSQIVLTQSPAIMSASPGEKVTMTCSASSRVTYMHWYQQRSGTSPKRWIYDTSKLASGVPARFSGSGSGTSYSLTISSMEAEDAATYYCQQWGNNPQYTFGGGTRLEIKRTVAAPSVFIFPPSDEQLKSGTASVVCLLNNFYPREAKVQWKVDNALQSGNSQESVTEQDSKDSTYSLSSTLTLSKADYEKHKVYACEVTHQGLSSPVTKSFNRGEC
chain 3: not shown
chain 4: not shown
[1]
  EC50, HTRF cAMP bioassay: 0.35 nM
[2]
  EC50, HTRF cAMP bioassay: 48 nM
[3]
  EC50, HTRF cAMP bioassay: 0.12 nM

B2: P28: SP02-amG2 (antibody, human IgG4 S228P, kappa, F234A L235A)
light: YGEGTFTSDYSIYLDKIAQKAFVQWLIAGGPSSGAPPPSGGGGSGGGGSGGGGSDIVMTQSPSSLTVTAGEKVTMSCKSSQSLLNSGNQKNYLTWYQQKPGQPPKLLISWASTRDSGVPDRFTGSGSGTDFTLTISSVQAEDLAVYYCQNDYSYPLTFGAGTKLELKRTVAAPSVFIFPPSDEQLKSGTASVVCLLNNFYPREAKVQWKVDNALQSGNSQESVTEQDSKDSTYSLSSTLTLSKADYEKHKVYACEVTHQGLSSPVTKSFNRGEC
heavy: not shown
[1]
  EC50, HTRF cAMP bioassay: 0.42 nM
[2]
  EC50, HTRF cAMP bioassay: 69 nM
[3]
  EC50, HTRF cAMP bioassay: 1.25 nM

## YGEGTFTSDYSIYLDKIAQKAFVQWLIAGGPSSGAPPPS (ends and bridges not checked) [SP02: GLP1/GIP receptor co-agonist analogue]
[4]
  EC50, HTRF cAMP bioassay: 3.69 nM

## YGEGTFTSDYSIQLDKIAQKAFVQWLIAGGPSSGAPPPS (ends and bridges not checked) [SP03: GLP1/GIP receptor co-agonist analogue]
[4]
  EC50, HTRF cAMP bioassay: 22 nM
[5]
  EC50, HTRF cAMP bioassay: 0.225 nM

B3: P46: SP01-amG3 (antibody, human IgG4 S228P, kappa, F234A L235A)
light: HGEGTFTSDVSSYLEEQAAKEFIAWLVKGGGGGGGSGGGGSGGGGSDVVMTQTPLSLPVSLGDQASISCRSSQSLVHSNGDTYLHWYLQKPGQSPKLLIYKVSNRFSGVPDRFSGSGSGTDFTLKISRVEAADLGVYFCSQSTHVPPFTFGGGTKLEIKRTVAAPSVFIFPPSDEQLKSGTASVVCLLNNFYPREAKVQWKVDNALQSGNSQESVTEQDSKDSTYSLSSTLTLSKADYEKHKVYACEVTHQGLSSPVTKSFNRGEC
heavy: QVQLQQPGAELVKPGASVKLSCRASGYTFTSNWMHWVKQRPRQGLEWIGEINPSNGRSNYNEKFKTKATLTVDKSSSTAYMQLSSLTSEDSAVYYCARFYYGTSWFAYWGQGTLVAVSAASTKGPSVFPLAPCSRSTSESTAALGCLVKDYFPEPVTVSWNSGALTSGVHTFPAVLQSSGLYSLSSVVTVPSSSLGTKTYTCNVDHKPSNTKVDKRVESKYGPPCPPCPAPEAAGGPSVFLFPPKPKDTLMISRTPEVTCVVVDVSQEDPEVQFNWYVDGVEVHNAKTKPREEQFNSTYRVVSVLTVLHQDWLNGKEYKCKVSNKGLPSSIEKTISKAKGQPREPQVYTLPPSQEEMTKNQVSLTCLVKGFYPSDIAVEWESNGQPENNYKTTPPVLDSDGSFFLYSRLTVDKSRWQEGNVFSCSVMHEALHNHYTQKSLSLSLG
[1]
  IC50, HTRF cAMP bioassay: 11.2 nM
[3]
  EC50, HTRF cAMP bioassay: 0.034 nM
